# Measurements: patent US20140314747A1, “PREDICTING RESPONSE TO EGFR INHIBITORS” (Genentech, Inc., priority 2013, published 2014)
# System: mesenchyme free lung explants (lung epithelium in Matrigel)
# Assay: mesenchyme-free lung explant culture, growth and branching
# Assay type: cell-based, mouse
# Settings: both LKB1 wt/wt and LKB1 MG/MG, presence and absence of NMPP1
# Description: Pancreas and individual lobes of the lungs were dissected from embryos harvested from timed pregnancy setups. Embryonic explants were cultured on 12 mm Transwell® with 0.4 μm polyester membrane insert (Corning, Tewsbury, Mass.) at the air-liquid interface in DME media with 10% fetal calf serum, glutamine and penicillin-streptomycin. For longer-term cultures (>3 days), media was changed daily.
# For mesenchyme-free cultures, lungs were dissected and incubated in Collagenase/Dispase (1 mg/ml for each) for 10-15 minutes at room temperature. Epithelial tissue was removed by mechanical dissection, transferred to the Transwell® plates, and covered with 5-10 μl of 1:1 Matrigel:DME. After Matrigel was solidified, 400 μl media (DME/10% FCS/glutamine/pen-strep+200 ng/ml FGF7 (Life Technologies, Carlsbad, Calif.), FGF1 (Life Technologies), or EGF (Life Technologies)) was added to top and bottom wells. Erlotinib (Tarceva®, 1 μM hydrochloride salt; OSI Pharmaceuticals) or DMSO was added as indicated.
# Embryonic explants were fixed in 4% paraformaldehyde, permeabilized in PBS with 2% BSA, 0.1% saponin or 0.1% Triton-X100. After washing, tissues were stained with anti-E-cadherin (Santa Cruz). […]
# Homozygous germline mutations in LKB1 in mice are early embryonic lethal. […] During this time, the response of these tissues to growth factors was assessed.
molecule,measurement,value
"FGF-7: fibroblast growth factor FGF-7 (Life Technologies) (protein, UniProt P21781 32-194, looked up) Fibroblast growth factor 7: CNDMTPEQMATNVNCSSPERHTRSYDYMEGGDIRVRRLFCRTQWYLRIDKRGKVKGTQEMKNNYNIMEIRTVAVGIVAIKGVESEFYLAMNKEGKLYAKKECNEDCNFKELILENHYNTYASAKWTHNGGEMFVALNQKGIPVRGKKTKKEQKTAHFLPMAIT",growth of mesenchyme free lung cultures,robust growth
